Columns and labels:
Settings in all cases: Sus scrofa
[1] = compound: C[C@H]1[C@H](C)CC[C@]2(C(=O)O)CC[C@]3(C)C(=CC[C@@H]4[C@@]5(C)C[C@@H](O)[C@H](O)C(C)(C)[C@@H]5CC[C@]43C)[C@H]12; experiment: Inhibition of porcine pancreatic alpha-amylase assessed as Vmax for substrate using starch as substrate at 31.2 uM by Michaelis-Menten plot analysis (reference value: 28.6 +/- 1.8 microg/ml/min)
[2] = compound: C[C@H]1[C@H](C)CC[C@]2(C(=O)O)CC[C@]3(C)C(=CC[C@@H]4[C@@]5(C)C[C@@H](O)[C@H](O)C(C)(C)[C@@H]5CC[C@]43C)[C@H]12; experiment: Inhibition of porcine pancreatic alpha-amylase assessed as Vmax for substrate using starch as substrate at 15.6 uM by Michaelis-Menten plot analysis (reference value: 28.6 +/- 1.8 microg/ml/min)
[3] = compound: C[C@H]1[C@H](C)CC[C@]2(C(=O)O)CC[C@]3(C)C(=CC[C@@H]4[C@@]5(C)C[C@@H](O)[C@H](O)C(C)(C)[C@@H]5CC[C@]43C)[C@H]12; experiment: Inhibition of porcine pancreatic alpha-amylase assessed as Km for substrate using starch as substrate at 15.6 uM by Michaelis-Menten plot analysis (reference value: 2.48 +/- 0.24 mg/ml)
[4] = compound: C[C@H]1[C@H](C)CC[C@]2(C(=O)O)CC[C@]3(C)C(=CC[C@@H]4[C@@]5(C)C[C@@H](O)[C@H](O)C(C)(C)[C@@H]5CC[C@]43C)[C@H]12; experiment: Inhibition of porcine pancreatic alpha-amylase assessed as Km for substrate using starch as substrate at 31.2 uM by Michaelis-Menten plot analysis (reference value: 2.48 +/- 0.24 mg/ml)

B1: Pancreatic alpha-amylase (Sus scrofa), P00690 (protein)
chain: MKLFLLLSAFGFCWAQYAPQTQSGRTSIVHLFEWRWVDIALECERYLGPKGFGGVQVSPPNENIVVTNPSRPWWERYQPVSYKLCTRSGNENEFRDMVTRCNNVGVRIYVDAVINHMCGSGAAAGTGTTCGSYCNPGNREFPAVPYSAWDFNDGKCKTASGGIESYNDPYQVRDCQLVGLLDLALEKDYVRSMIADYLNKLIDIGVAGFRIDASKHMWPGDIKAVLDKLHNLNTNWFPAGSRPFIFQEVIDLGGEAIQSSEYFGNGRVTEFKYGAKLGTVVRKWSGEKMSYLKNWGEGWGFMPSDRALVFVDNHDNQRGHGAGGASILTFWDARLYKVAVGFMLAHPYGFTRVMSSYRWARNFVNGQDVNDWIGPPNNNGVIKEVTINADTTCGNDWVCEHRWRQIRNMVWFRNVVDGQPFANWWANGSNQVAFGRGNRGFIVFNNDDWQLSSTLQTGLPGGTYCDVISGDKVGNSCTGIKVYVSSDGTAQFSISNSAEDPFIAIHAESKL
Vmax [1]: 14.3 µg/mL/min | Vmax [2]: 21 µg/mL/min | Km [3]: 2.28 mg/mL | Km [4]: 2.69 mg/mL

— ChEMBL document CHEMBL4043266, “Pentacyclic triterpenes as α-glucosidase and α-amylase inhibitors: Structure-activity relationships and the synergism with acarbose” (Bioorg Med Chem Lett, 2017)
